Columns and labels:
[1] = target: the molecule itself; assay: SAXS; batch mode, 0.9 mg/mL hPAH in 20 mM HEPES pH 7.0, 200 mM NaCl, 0-1.2% v/v [N1112(OH)][C4F9SO3], no L-Phe; volume fractions of oligomers fitted with OLIGOMER
[2] = target: the molecule itself; assay: native gel or EMSA; blue native PAGE, NativePAGE 4-16% Bis-Tris gel; hPAH with 0-1.2% v/v [N1112(OH)][C4F9SO3], with and without L-Phe
[3] = target: the molecule itself; assay: SEC; Superdex 200 Increase 10/300, 20 mM HEPES pH 7.0, 200 mM NaCl, 277.15 K; tetramer fraction isolated

B1: human phenylalanine hydroxylase (enzyme, UniProt P00439 1-452, looked up)
chain: MSTAVLENPGLGRKLSDFGQETSYIEDNCNQNGAISLIFSLKEEVGALAKVLRLFEENDVNLTHIESRPSRLKKDEYEFFTHLDKRSLPALTNIIKILRHDIGATVHELSRDKKKDTVPWFPRTIQELDRFANQILSYGAELDADHPGFKDPVYRARRKQFADIAYNYRHGQPIPRVEYMEEEKKTWGTVFKTLKSLYKTHACYEYNHIFPLLEKYCGFHEDNIPQLEDVSQFLQTCTGFRLRPVAGLLSSRDFLGGLAFRVFHCTQYIRHGSKPMYTPEPDICHELLGHVPLFSDRSFAQFSQEIGLASLGAPDEYIEKLATIYWFTVEFGLCKQGDSIKAYGAGLLSSFGELQYCLSEKPKLLPLELEKTAIQNYTVTEFQPLYYVAESFNDAKEKVRNFAATIPRPFSVRYDPYTQRIEVLDNTQQLKILADSINSEIGILCSALQKIK
notes: human phenylalanine hydroxylase (hPAH), recombinant full-length, each subunit 52 kDa; No step that cleaves the tag is described, and the enzymatic assays name the protein His6-hPAH, so the tag and linker were probably kept; The tetramer fraction from SEC was the starting material of all assays; also called hPAH; His6-hPAH; source: E. coli Top10, purified (Ni-NTA, SEC on Superdex 200 Increase; …)
[1]
  stoichiometry N: 2
[2]
  stoichiometry N: 8
[3]
  stoichiometry N: 4
